Experimental data published in article PMC12098294.

Experiments:
[1] = target: CD19/NKG2DL tandem CAR with a short hinge (12 amino acids) derived from CD8α (UniProt P26718); assay: flow cytometry on cells; CAR-transduced primary T-cells incubated with rhMICA-Avi (detected with Alexa Fluor 647 streptavidin) and/or rhCD19-Fc (detected with anti-human IgG-Fc antibody); MFI read in a subpopulation expressing the CD34 marker at similar level; one ligand alone or both together
[2] = target: CD19/NKG2DL tandem CAR with a short hinge (12 amino acids) derived from IgG4 (UniProt P26718); assay: as above

B1: recombinant human Biotinylated Human MICA Protein, His,Avitag (ligand)
chain: EPHSLRYNLTVLSWDGSVQSGFLTEVHLDGQPFLRCDRQKCRAKPQGQWAEDVLGNKTWDRETRDLTGNGKDLRMTLAHIKDQKEGLHSLQEIRVCEIHEDNSTRSSQHFYYDGELFLSQNLETKEWTMPQSSRAQTLAMNVRNFLKEDAMKTKTHYHAMHADCLQELRRYLKSGVVLRRTVPPMVNVTRSEASEGNITVTCRASGFYPWNITLSWRQDGVSLSHDTQQWGDVLPDGNGTYQTWVATRICQGEEQRFTCYMEHSGNHSTHPVPSGKVLVLQSHW
modifications: biotin (biotinylated protein)
decrease of MICA binding against the NKG2DL single-targeting CAR [1]: 30% | decrease of MICA binding against the NKG2DL single-targeting CAR [2]: 30%
